Tests used:
[1] = target: T1, human MHC class II DR protein (DRA*0101/DRB1*0401), purified from PRIESS cells (human, UniProt P01903 26-254; P01911 30-266, limits assumed); assay: SPR (BIAcore), Fab, chip density 500 RU MHCII
T1 construct: mature; also called HLA-DR protein; MHCII
T1 MHC II alpha: not shown
T1 MHC II beta: not shown

[2] = target: T2, HLA-DR (DRA*0101/DRB1*0401) on PRIESS cells (human, UniProt P01903 26-254; P01911 30-266); assay: cell-based or functional assay
T2 MHC II alpha: not shown
T2 MHC II beta: not shown

[3] = target: T3, BSA (bovine, UniProt P02769 25-607); assay: ELISA, coated antigen
T3 construct: negative control antigen; also called bovine serum albumine

[4] = target: T4, chimeric 0401-IE class II molecule on cells of transgenic mice (human/murine chimera); assay: cell-based or functional assay
[5] = target: T1, human MHC class II DR protein …; assay: SPR (BIAcore), MHCII on CM5 chip
[6] = target: T1, human MHC class II DR protein …; assay: SPR (BIAcore), MHCII on CM5 chip
[7] = target: T1, human MHC class II DR protein …; assay: BiaCore, Fab
[8] = target: HLA-DR on LG-2 cells (human); assay: cell-based or functional assay
[9] = target: T1, human MHC class II DR protein …; assay: ELISA, coated antigen, Fab 100 ng/well, read at 370 nm
Method: After washing in PBS the anti-human IgG F(ab')_2-peroxidase-conjugate at a 1:10,000 dilution in TBS (supplemented with 5% w/v non-fat drymilk/0.05% v/v Tween 20) was added to each well for 1 h. Final washes were carried out in PBS followed the addition the substrate POD (Roche).

[10] = target: T4, chimeric 0401-IE class II molecule on …; assay: cell-based or functional assay; remark: listed apart in the source
[11] = target: T1, human MHC class II DR protein …; assay: BiaCore, IgG4
Method: The affinities for anti-HLA antibody fragments of the invention were measured as follows. All measurements were conducted in HBS buffer (20 mM HEPES, 150 mM NaCl, pH 7.4) at a flow rate of 20 µl/min at 25° C. on a BIAcore3000 instrument (Biacore AB, Sweden). MHC class II DR protein (prepared as example 1) was diluted in 100 mM sodium acetate pH 4.5 to a concentration of […], and coupled to a CM5 chip (Biacore AB) using standard EDC-NHS coupling chemistry with subsequent ethanolamine treatment as manufacturers directions. The coating density of MHCII was adjusted to between 500 and 4000 RU. Affinities were measured by injection of 5 different concentrations of the different antibodies and using the standard software of the Biacore instrument. Regeneration of the coupled surface was achieved using 10 mM glycine pH 2.3 and 7.5 mM NaOH.

[12] = target: HLA-DR on LP-1 cells (human); assay: cell-based or functional assay
[13] = target: HLA-DR on HD-MY-Z cells (human); assay: cell-based or functional assay
[14] = target: HLA-DR on RPMI-8226 cells (human); assay: cell-based or functional assay
[15] = target: HLA-DR on ARH-77 cells (human); assay: cell-based or functional assay
[16] = target: HLA-DR on L-363 cells (human); assay: cell-based or functional assay
[17] = target: HLA-DR on BONNA-12 cells (human); assay: cell-based or functional assay
[18] = target: HLA-DR on RAJI cells (human); assay: cell-based or functional assay
[19] = target: HLA-DR on KARPAS-422 cells (human); assay: cell-based or functional assay
[20] = target: HLA-DR on EOL-1 cells (human); assay: cell-based or functional assay
[21] = target: T2, HLA-DR (DRA*0101/DRB1*0401) on PRIESS …; assay: cell-based or functional assay
[22] = target: HLA-DR on KM-H2 cells (human); assay: cell-based or functional assay
[23] = target: HLA-DR on MN-60 cells (human); assay: cell-based or functional assay
[24] = target: HLA-DR on KARPAS-299 cells (human); assay: cell-based or functional assay
[25] = target: HLA-DR on DOHH-2 cells (human); assay: cell-based or functional assay
[26] = target: HLA-DR on GRANTA-519 cells (human); assay: cell-based or functional assay
[27] = target: HLA-DR on BJAB cells (human); assay: cell-based or functional assay
[28] = target: HLA-DR on SR-786 cells (human); assay: cell-based or functional assay
[29] = target: HLA-DR on MHH-PREB-1 cells (human); assay: cell-based or functional assay
[30] = target: HLA-DR on L-428 cells (human); assay: cell-based or functional assay
[31] = target: HLA-DR on MHH-CALL-4 cells (human); assay: cell-based or functional assay
[32] = target: HLA-DR on HDLM-2 cells (human); assay: cell-based or functional assay
[33] = target: HLA-DR on NALM-1 cells (human); assay: cell-based or functional assay
[34] = target: HLA-DR on L1236 cells (human); assay: cell-based or functional assay
[35] = target: HLA-DR on HC-1 cells (human); assay: cell-based or functional assay
[36] = target: T1, human MHC class II DR protein …; assay: SPR (BIAcore), IgG4 over MHCII on CM5 chip
[37] = target: T3, BSA; assay: ELISA, purified coated protein, OD at 370 nm minus background

T3 sequence (P02769 25-607 limits assumed): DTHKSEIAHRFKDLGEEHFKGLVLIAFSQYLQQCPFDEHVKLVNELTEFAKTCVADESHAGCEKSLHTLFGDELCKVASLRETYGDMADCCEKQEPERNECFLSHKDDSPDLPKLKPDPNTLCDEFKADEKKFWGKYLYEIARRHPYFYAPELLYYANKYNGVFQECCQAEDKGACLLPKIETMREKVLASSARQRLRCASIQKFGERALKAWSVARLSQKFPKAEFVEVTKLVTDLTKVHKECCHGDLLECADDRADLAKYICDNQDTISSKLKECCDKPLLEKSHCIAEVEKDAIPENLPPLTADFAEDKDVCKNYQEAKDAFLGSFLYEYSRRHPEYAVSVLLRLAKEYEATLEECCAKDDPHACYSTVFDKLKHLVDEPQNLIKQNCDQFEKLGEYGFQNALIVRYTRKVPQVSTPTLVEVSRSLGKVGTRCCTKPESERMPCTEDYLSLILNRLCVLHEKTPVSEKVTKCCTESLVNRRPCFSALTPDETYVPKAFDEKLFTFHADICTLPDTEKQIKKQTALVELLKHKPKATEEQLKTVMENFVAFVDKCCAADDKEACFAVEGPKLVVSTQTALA

B1: MS-GPC-1 Fab (Fab, V domains shown)
VH: QVQLKESGPALVKPTQTLTLTCTFSGFSLSTSGVGVGWIRQPPGKALEWLALIDWDDDKYYSTSLKTRLTISKDTSKNQVVLTMTNMDPVDTATYYCARQYGHRGGFDHWGQGTLVTVSS
VL: DIVLTQPPSVSGAPGQRVTISCSGSSSNIGSNYVSWYQQLPGTAPKLLIYDNNQRPSGVPDRFSGSKSGTSASLAITGLQSEDEADYYCQSYDFNESVFGGGTKLTVLG
notes: Fab from pMx9_Fab: VH-CH1 with FLAG tag and STREP tag II, VL-CL; VH residue 1 is Q in Fab; also called 17-Fab; 17
Kd [1]: 820 nM | koff [1]: 0.053 s⁻¹ | kon [1]: 63900 M⁻¹ s⁻¹ | EC50 of cell killing, cross-linked Fab, bivalent agent [2]: 54 nM | binding result [3]: no binding

B2: MS-GPC-10 Fab (Fab, V domains shown)
VH: QVQLKESGPALVKPTQTLTLTCTFSGFSLSTSGVGVGWIRQPPGKALEWLALIDWDDDKYYSTSLKTRLTISKDTSKNQVVLTMTNMDPVDTATYYCARQLHYRGGFDLWGQGTLVTVSS
VL: DIVLTQPPSVSGAPGQRVTISCSGSSSNIGSNYVSWYQQLPGTAPKLLIYDNNQRPSGVPDRFSGSKSGTSASLAITGLQSEDEADYYCQSYDLTMGVFGGGTKLTVLG
notes: Fab from pMx9_Fab: VH-CH1 with FLAG tag and STREP tag II, VL-CL; VH residue 1 is Q in Fab; also called E6-Fab; E6
Kd [1]: 2860 nM | koff [1]: 0.063 s⁻¹ | kon [1]: 22000 M⁻¹ s⁻¹ | EC50 of cell killing, cross-linked Fab, bivalent agent [2]: 33 nM | binding result [3]: no binding

B3: MS-GPC-8-27-41 Fab (Fab, V domains shown)
VH: QVQLKESGPALVKPTQTLTLTCTFSGFSLSTSGVGVGWIRQPPGKALEWLALIDWDDDKYYSTSLKTRLTISKDTSKNQVVLTMTNMDPVDTATYYCARSPRYRGAFDYWGQGTLVTVSS
VL: DIVLTQPPSVSGAPGQRVTISCSGSESNIGNNYVQWYQQLPGTAPKLLIYDNNQRPSGVPDRFSGSKSGTSASLAITGLQSEDEADYYCQSYDMNVHVFGGGTKLTVLG
notes: Fab: VH-CH1 with FLAG tag and STREP tag II, VL-CL; VH residue 1 is Q in Fab; also called 1D09C3
IC50 of inhibition of IL-2 secretion from T-Hyb 1 cells [4]: 3.6 nM (half the concentration of the Fab) | Maximum inhibition(%) of IL-2 secretion [4]: 100% | Kd [5]: 2.9 nM | koff [5]: 0.00049 s⁻¹ | kon [5]: 170000 M⁻¹ s⁻¹ | Kd [6]: 2.93 nM | koff [6]: 0.00049 s⁻¹ | kon [6]: 167000 M⁻¹ s⁻¹ | Kd [7]: 2.93 nM | koff [7]: 0.00049 s⁻¹ | kon [7]: 167000 M⁻¹ s⁻¹ | EC50 of cell killing, cross-linked Fab, bivalent agent [8]: 7.2 nM | EC50 of cell killing, cross-linked Fab, bivalent agent [2]: 7.7 nM | ELISA signal [9]: 1.52

B4: MS-GPC-8-27-41 IgG4 (antibody, V domains shown)
VH: QVQLKESGPALVKPTQTLTLTCTFSGFSLSTSGVGVGWIRQPPGKALEWLALIDWDDDKYYSTSLKTRLTISKDTSKNQVVLTMTNMDPVDTATYYCARSPRYRGAFDYWGQGTLVTVSS
VL: DIVLTQPPSVSGAPGQRVTISCSGSESNIGNNYVQWYQQLPGTAPKLLIYDNNQRPSGVPDRFSGSKSGTSASLAITGLQSEDEADYYCQSYDMNVHVFGGGTKLTVLG
notes: also called 1D09C3; IgG form of MS-GPC-8-27-41
IC50 of inhibition of IL-2 secretion from T-Hyb 1 cells [4]: 0.28 nM | Maximum inhibition(%) of IL-2 secretion [4]: 100% | EC50 of cell killing, IgG4 [2]: 1.1 nM | IC50 value for inhibition of T cell proliferation [10]: 20 nM | Kd [11]: 0.6 nM | koff [11]: 0.00041 s⁻¹ | % Killing by mAb, 50 nM, 4 h [12]: 73% | % Killing by mAb, 50 nM, 4 h [13]: 69% | % Killing by mAb, 50 nM, 4 h [14]: 29% | % Killing by mAb, 50 nM, 4 h [15]: 85% | % Killing by mAb, 50 nM, 4 h [16]: 26% | % Killing by mAb, 50 nM, 4 h [17]: 92% | % Killing by mAb, 50 nM, 4 h [18]: 84% | % Killing by mAb, 50 nM, 4 h [19]: 66% | % Killing by mAb, 50 nM, 4 h [20]: 69% | % Killing by mAb, 50 nM, 4 h [21]: 88% | % Killing by mAb, 50 nM, 4 h [22]: 86% | % Killing by mAb, 50 nM, 4 h [23]: 69% | % Killing by mAb, 50 nM, 4 h [24]: 82% | % Killing by mAb, 50 nM, 4 h [25]: 59% | % Killing by mAb, 50 nM, 4 h [26]: 78% | % Killing by mAb, 50 nM, 4 h [27]: 71% | % Killing by mAb, 50 nM, 4 h [28]: 53% | % Killing by mAb, 50 nM, 4 h [29]: 4% | % Killing by mAb, 50 nM, 4 h [30]: 91% | % Killing by mAb, 50 nM, 4 h [31]: 63% | % Killing by mAb, 50 nM, 4 h [32]: 88% | % Killing by mAb, 50 nM, 4 h [33]: 82% | % Killing by mAb, 50 nM, 4 h [34]: 63% | % Killing by mAb, 50 nM, 4 h [35]: 93% | Kd [36]: 0.31 nM | koff [36]: 3.1e-05 s⁻¹ | kon [36]: 110000 M⁻¹ s⁻¹ | binding result [37]: no binding

B5: MS-GPC-8-10-57 IgG4 (antibody, V domains shown)
VH: QVQLKESGPALVKPTQTLTLTCTFSGFSLSTSGVGVGWIRQPPGKALEWLALIDWDDDKYYSTSLKTRLTISKDTSKNQVVLTMTNMDPVDTATYYCARSPRYRGAFDYWGQGTLVTVSS
VL: DIVLTQPPSVSGAPGQRVTISCSGSESNIGNNYVQWYQQLPGTAPKLLIYDNNQRPSGVPDRFSGSKSGTSASLAITGLQSEDEADYYCQSYDLIRHVFGGGTKLTVLG
notes: also called 1C7277; IgG form of MS-GPC-8-10-57
IC50 of inhibition of IL-2 secretion from T-Hyb 1 cells [4]: 0.31 nM | Maximum inhibition(%) of IL-2 secretion [4]: 100% | EC50 of cell killing, IgG4 [2]: 1.1 nM | IC50 value for inhibition of T cell proliferation [10]: 11 nM | Kd [11]: 0.3 nM | koff [11]: 0.00031 s⁻¹ | % Killing by mAb, 50 nM, 4 h [12]: 70% | % Killing by mAb, 50 nM, 4 h [13]: 57% | % Killing by mAb, 50 nM, 4 h [14]: 26% | % Killing by mAb, 50 nM, 4 h [15]: 88% | % Killing by mAb, 50 nM, 4 h [16]: 24% | % Killing by mAb, 50 nM, 4 h [17]: 91% | % Killing by mAb, 50 nM, 4 h [18]: 86% | % Killing by mAb, 50 nM, 4 h [19]: 68% | % Killing by mAb, 50 nM, 4 h [20]: 49% | % Killing by mAb, 50 nM, 4 h [21]: 93% | % Killing by mAb, 50 nM, 4 h [22]: 88% | % Killing by mAb, 50 nM, 4 h [23]: 66% | % Killing by mAb, 50 nM, 4 h [24]: 79% | % Killing by mAb, 50 nM, 4 h [25]: 60% | % Killing by mAb, 50 nM, 4 h [26]: 78% | % Killing by mAb, 50 nM, 4 h [27]: 67% | % Killing by mAb, 50 nM, 4 h [28]: 44% | % Killing by mAb, 50 nM, 4 h [29]: 8% | % Killing by mAb, 50 nM, 4 h [30]: 91% | % Killing by mAb, 50 nM, 4 h [31]: 46% | % Killing by mAb, 50 nM, 4 h [32]: 84% | % Killing by mAb, 50 nM, 4 h [33]: 78% | % Killing by mAb, 50 nM, 4 h [34]: 66% | % Killing by mAb, 50 nM, 4 h [35]: 86% | Kd [36]: 0.6 nM | koff [36]: 4e-05 s⁻¹ | kon [36]: 70000 M⁻¹ s⁻¹ | binding result [37]: no binding
